For this data set, the target named is Carbonic anhydrase 1 (CA1) (human, UniProt P00915 2-261). The data set is described as follows: G-FET.
Chain of Carbonic anhydrase 1 (CA1) (P00915 2-261): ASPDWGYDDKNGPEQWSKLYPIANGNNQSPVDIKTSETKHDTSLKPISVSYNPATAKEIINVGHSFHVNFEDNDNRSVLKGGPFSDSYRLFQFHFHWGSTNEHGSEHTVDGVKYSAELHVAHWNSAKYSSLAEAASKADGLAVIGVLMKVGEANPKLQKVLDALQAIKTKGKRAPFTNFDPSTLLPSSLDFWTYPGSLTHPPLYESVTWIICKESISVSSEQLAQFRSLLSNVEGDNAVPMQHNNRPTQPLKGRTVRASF

CAGGCGCAGUAUCACUUUGUGAUCAUUAGUGGGUUCCGUG (ssRNA, 5' amine, coupled to graphene via PBASE linker) [CA1 RNA aptamer] returned a Kd of 2.27 ng/mL.
